Target: the molecule itself
Assay: AFM single-molecule force spectroscopy (AFM-SMFS); living WTT-CHO cells transfected with 1 µg of HA-GPCR vector, basal state, 37 °C; anti-HA antibody on the AFM tip pulls the HA-receptor out of the membrane; unfolding distances fitted by a Gaussian mixture (BIC) and each population assigned to an oligomeric state by the receptor's theoretical length

B1: HA-angiotensin II subtype 1a receptor (receptor, UniProt P25095 1-359, looked up)
chain: MALNSSAEDGIKRIQDDCPKAGRHSYIFVMIPTLYSIIFVVGIFGNSLVVIVIYFYMKLKTVASVFLLNLALADLCFLLTLPLWAVYTAMEYRWPFGNHLCKIASASVSFNLYASVFLLTCLSIDRYLAIVHPMKSRLRRTMLVAKVTCIIIWLMAGLASLPAVIHRNVYFIENTNITVCAFHYESRNSTLPIGLGLTKNILGFLFPFLIILTSYTLIWKALKKAYEIQKNKPRNDDIFRIIMAIVLFFFFSWVPHQIFTFLDVLIQLGVIHDCKISDIVDTAMPITICIAYFNNCLNPLFYGFLGKKFKKYFLQLLKYIPPKAKSHSSLSTKMSTLSYRPSDNMSSSAKKPASCFEVE
notes: angiotensin II subtype 1a receptor, family A GPCR; theoretical contour length of the HA-tagged receptor 147 nm at 0.4 nm per amino acid; The subtype name 1a points to a rodent receptor (rat P25095 or mouse P29754, both 359 residues); 147 nm (about 368 residues) fits 359 residues plus a 9-residue HA tag; also called HA-AT1a-R; AT1a-R; source: WTT-CHO cells, transiently transfected (1 µg vector); …
stoichiometry N: 2

— PMC8913689, “Atomic force microscopy-single-molecule force spectroscopy unveils GPCR cell surface architecture” (Communications Biology, 2022)
